Test results reported in IntAct's records for PubMed 9371806.

B1: Achaete-scute complex protein T4 (Drosophila melanogaster (Fruit fly)), P10084 (parent)
chain: MKNNNNTTKSTTMSSSVLSTNETFPTTINSATKIFRYQHIMPAPSPLIPGGNQNQPAGTMPIKTRKYTPRGMALTRCSESVSSLSPGSSPAPYNVDQSQSVQRRNARERNRVKQVNNSFARLRQHIPQSIITDLTKGGGRGPHKKISKVDTLRIAVEYIRRLQDLVDDLNGGSNIGANNAVTQLQLCLDESSSHSSSSSTCSSSGHNTYYQNTISVSPLQQQQQLQRQQFNHQPLTALSLNTNLVGTSVPGGDAGCVSTSKNQQTCHSPTSSFNSSMSFDSGTYEGVPQQISTHLDRLDHLDNELHTHSQLQLKFEPYEHFQLDEEDCTPDDEEILDYISLWQEQ
partner: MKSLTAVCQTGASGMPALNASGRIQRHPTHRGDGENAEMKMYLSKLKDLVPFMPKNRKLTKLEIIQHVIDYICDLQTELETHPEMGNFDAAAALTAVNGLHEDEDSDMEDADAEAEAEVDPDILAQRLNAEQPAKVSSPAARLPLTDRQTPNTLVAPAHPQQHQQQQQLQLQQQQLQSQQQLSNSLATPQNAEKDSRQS
B2: Achaete-scute complex protein T4 (Drosophila melanogaster (Fruit fly)), P10084 (parent)
chain: B1 chain
partner: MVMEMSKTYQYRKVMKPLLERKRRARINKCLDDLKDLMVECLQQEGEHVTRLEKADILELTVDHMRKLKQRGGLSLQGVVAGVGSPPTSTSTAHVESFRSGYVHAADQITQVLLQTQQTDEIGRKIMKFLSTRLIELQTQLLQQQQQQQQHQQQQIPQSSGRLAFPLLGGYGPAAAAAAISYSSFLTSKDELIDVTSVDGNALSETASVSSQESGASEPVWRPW

Variants of: B1
Conditions: with emc_drome emc

Question: With MKNNNNTTKSTTMSSSVLSTNETFPTTINSATKIFRYQHIMPAPSPLIPGGNQNQPAGTMPIKTRKYTPRGMALTRCSESVSSLSPGSSPAPYNVDQSQSVQRRNARERNRVKQVNNSFARLRQHIPQSIITDLTKGGGRGPHKKISKVDTLRIAVEYIRRLQDLVDDLNGGSNIGANNAVTQLQLCLDESSSHSSSSSTCSSSGHNTYYQNTISVSPLQQQQQLQRQQFNHQPLTALSLNTNLVGTSVPGGDAGCVSTSKNQQTCHSPTSSFNSSMSFDSGTYEGVPQQISTHLDRLDHLDNELHTHSQLQLKFEPYEHFQLDEEDCTPDDEEILDYIDLWQEQ [S340D] as the variant, how does the “effect of a mutation on the interaction” value read?
Answer: The value was “decreasing interaction”.

Variants of: B2
Conditions: with esm3_drome E(spl)m3-HLH

Question: Which “effect of a mutation on the interaction” value does the source give for MKNNNNTTKSTTMSSSVLSTNETFPTTINSATKIFRYQHIMPAPSPLIPGGNQNQPAGTMPIKTRKYTPRGMALTRCSESVSSLSPGSSPAPYNVDQSQSVQRRNARERNRVKQVNNSFARLRQHIPQSIITDLTKGGGRGPHKKISKVDTLRIAVEYIRRLQDLVDDLNGGSNIGANNAVTQLQLCLDESSSHSSSSSTCSSSGHNTYYQNTISVSPLQQQQQLQRQQFNHQPLTALSLNTNLVGTSVPGGDAGCVSTSKNQQTCHSPTSSFNSSMSFDSGTYEGVPQQISTHLDRLDHLDNELHTHSQLQLKFEPYEHFQLDEEDCTPDDEEILDYIDLWQEQ [S340D] here?
Answer: Its value is “increasing interaction”.
